From patent publication US20110262447A1 (RAMOT AT TEL AVIV UNIVERSITY, published 2011)
Substitutions are numbered along the chain they refer to.

B1: A4 scFv (scFv)
scFv: VQLLESGGGLVQPGGSLRLSCAASGFTFSGYWMHWVRQAPGKGLEWVSEISGSGDSTHYGDSVKGRFTISRDNSKNTLYLQMNSLRAEDTAVYYCARGRNGSLDYWGQGTLVTVSSGSAGGGGSGGGGSGGGGSDIVLTQPPSASGTPGQRVTISCTGNSSNIGAGYDVHWYQQLPGKAPKLLIYSNNQRPSGVPDRFSGSKSGTSASLAISGLRSEDEADYYCAAWDDSLSSVVFGGGTKLTV
B2: F2 scFv (scFv)
scFv: B1 scFv with T157S, N159T, G166D, S186D, Q189K, P195S, D229S, K241Q
B3: B6 scFv (scFv)
scFv: B1 scFv with N159S, S161A, S186D, N188D, Q189K, S230R, S233G, L242V

Legend:
Streptavidin = Streptavidin (UniProt P22629 37-163); assay: ELISA, group 6, Streptavidin
Streptavidin, sequence (P22629 37-163 limits assumed): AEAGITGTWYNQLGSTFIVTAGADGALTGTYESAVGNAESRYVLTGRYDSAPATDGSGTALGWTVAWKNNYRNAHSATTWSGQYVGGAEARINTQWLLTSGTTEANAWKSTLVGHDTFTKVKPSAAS

Bovine Serum Albumin = molecular target: T1, Bovine Serum Albumin (bovine, UniProt P02769 25-607); assay: ELISA, group 5, BSA
T1 construct: also called BSA
T1 sequence (P02769 25-607 limits assumed): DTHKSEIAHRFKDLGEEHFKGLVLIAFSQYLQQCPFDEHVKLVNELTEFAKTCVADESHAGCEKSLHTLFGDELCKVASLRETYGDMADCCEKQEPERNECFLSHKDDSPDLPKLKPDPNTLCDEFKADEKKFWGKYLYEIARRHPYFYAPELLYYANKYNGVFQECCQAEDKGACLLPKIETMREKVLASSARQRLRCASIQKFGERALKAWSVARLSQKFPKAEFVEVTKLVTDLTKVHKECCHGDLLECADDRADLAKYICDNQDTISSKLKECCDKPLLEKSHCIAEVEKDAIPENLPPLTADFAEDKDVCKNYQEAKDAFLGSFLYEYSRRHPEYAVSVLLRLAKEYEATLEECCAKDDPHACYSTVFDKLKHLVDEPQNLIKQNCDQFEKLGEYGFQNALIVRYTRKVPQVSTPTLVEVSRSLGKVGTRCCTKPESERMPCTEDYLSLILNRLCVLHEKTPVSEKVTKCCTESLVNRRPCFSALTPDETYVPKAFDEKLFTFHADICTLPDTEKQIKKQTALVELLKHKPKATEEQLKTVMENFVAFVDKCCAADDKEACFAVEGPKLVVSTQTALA

[1] = molecular target: multiple antigen peptide presenting amino acids 144-153 of the human prion protein (MAP-PrP […]) (human); assay: ELISA, group 3, MAP-PrP

Row | Binder | binding result (Streptavidin) | binding result (Bovine Serum Albumin) | binding result [1]
1 | B1 | no binding (tested: not given on the sheet) | no binding (tested: not given on the sheet) | –
2 | B2 | no binding (tested: not given on the sheet) | – | no binding (tested: not given on the sheet)
3 | B3 | no binding (tested: not given on the sheet) | no binding (tested: not given on the sheet) | no binding (tested: not given on the sheet)
